Results: patent US20190359693A1

Experiments:
Test in all cases: cell-based or functional assay
[1] = target: hemagglutinin (HA) of influenza A/Brisbane/10/07 (H3N2) (influenza A virus A/Brisbane/10/07 (H3N2))
[2] = target: hemagglutinin (HA) of influenza A/New York/107/03 (PR8) (influenza A virus A/New York/107/03 (PR8))
[3] = target: hemagglutinin (HA) of influenza A/chicken/Germany/n/49 (H10N7) (influenza A virus A/chicken/Germany/n/49 (H10N7))
[4] = target: hemagglutinin (HA) of influenza A/waterfowl/Hong Kong/MPA892/06 (H4) (influenza A virus A/waterfowl/Hong Kong/MPA892/06 (H4))
[5] = target: HA of H10N7 A/Chick/Germany/N/49 (influenza A virus)
[6] = target: HA of H1N1 A/New Caledonia/20/1999 (influenza A virus)
[7] = target: HA of H1N1 A/Puerto Rico/8/34-MA (influenza A virus)
[8] = target: HA of H3N2 A/Brisbane/10/2007 (influenza A virus)
[9] = target: HA of H3N2 A/HK/1/68 (influenza A virus) (UniProt Q91MA7)
[10] = target: HA of H4 A/WF/HK/MPA892/06 (influenza A virus)
[11] = target: HA of H5N1 A/PR8 H5N1 HK97 (influenza A virus)
[12] = target: HA of H5N1 A/Vietnam/1194/04 (influenza A virus)
[13] = target: HA of H7N3 A/NIBRG/60 (A/mallard/NL/12/00) (influenza A virus)
[14] = target: hemagglutinin (HA) of influenza virus B/Brisbane/60/08 (Victoria) (influenza B virus)
[15] = target: hemagglutinin (HA) of influenza virus B/Florida/04/06 (Yamagata) (influenza B virus)
[16] = target: hemagglutinin (HA) of influenza virus B/Harbin/7/94 (Yamagata) (influenza B virus)
[17] = target: hemagglutinin (HA) of influenza virus B/Lee/40 (Old) (influenza B virus) (UniProt P03460)
[18] = target: hemagglutinin (HA) of influenza virus B/Malaysia/2506/04 (Victoria) (influenza B virus)
[19] = target: hemagglutinin (HA) of influenza virus H3N2 A/Brisbane/10/07 (influenza A virus)
[20] = target: hemagglutinin (HA) of influenza virus H5N1 A/Vietnam/1194/04 (influenza A virus)
[21] = target: hemagglutinin (HA) of influenza virus H7N3 A/NIBRG/60 (A/mallard/Netherlands/12/00) (influenza A virus)
[22] = target: hemagglutinin (HA) of influenza virus H7N9 A/Anhui/1/13 (influenza A virus)

B1: SD3097 (VHH)
VHH: EVQLLESGGGLVQPGGSLRLSCAASGRTYAMGWFRQAPGKEREFVAAINALGTRTYYADSVKGRFTISRDNSKNTLYLQMNSLRAEDTAVYYCTAQGQWRAAPVAVAAEYEFWGQGTLVTVSS
- VNA IC50 [1]: 17 nM
- VNA IC50 [2]: 8 nM
- VNA IC50 [3]: 6 nM
- VNA IC50 [4]: 6 nM

B2: SD3099 (VHH)
VHH: EVQLVESGGGLVQPGGSLRLSCAASGRTLSIYSMGWFRQAPGKEREFVATIGWNSGRTFYPDSVKGRFTISRDNSKNTLYLQMNSLRAEDTAVYYCAAAKGPLRLSSQADYWGQGTLVTVSS
- VNA IC50 [1]: 3 nM
- VNA IC50 [2]: 16 nM
- VNA IC50 [3]: 5 nM
- VNA IC50 [4]: 2 nM

B3: SD1069 (VHH)
VHH: EVQLVESGGGLVQAGDSLRLSCAASGPTFGMSAMGWFRQAPGKEREFVAAISGLGNPNYSDDVKGRFTISRENGRNTVYLQMNSLKPEDTAVYYCAQRKVYHVQGGDRPQAYDYWGQGTQVTVSS
- VNA titer [5]: > 1000 nM
- VNA titer [6]: 20.8 nM
- VNA titer [7]: 12.8 nM
- VNA titer [8]: > 1000 nM
- VNA titer [9]: > 1000 nM
- VNA titer [10]: > 1000 nM
- VNA titer [11]: 242 nM
- VNA titer [12]: 74 nM
- VNA titer [13]: > 1000 nM

B4: SD1073 (VHH)
VHH: EVQLVESGGGLVQAGGSLRLSCAASGSAFSIAAMGWYRQAPGKQRELVATITTGGSTNYADSVKGRFTISRDNSKNTAYLQMNSLKPEDTAVYYCTAKSVVAETFGDLYNYWGQGTQVTVSS
- VNA titer [5]: 317 nM
- VNA titer [6]: 98.9 nM
- VNA titer [7]: 89.6 nM
- VNA titer [8]: > 1000 nM
- VNA titer [9]: > 1000 nM
- VNA titer [10]: > 1000 nM
- VNA titer [11]: 179 nM
- VNA titer [12]: 224 nM
- VNA titer [13]: 135 nM

B5: MD1222 (bispecific antibody)
chain: EVQLVESGGGLVQPGGSLRLSCAATGFTLENKAIGWFRQTPGSEREGVLCISKSGSWTYYTDSMRGRFTISRDNAENTVYLQMDSLKPEDTAVYYCATTTAGGGLCWDGTTFSRLASSWGQGTQVTVSSAAAGGGGSGGGGSGGGGSGGGGSGGGGSGGGGSGGGGSEVQLVESGGGLVQPGGSLKLSCAASGFTFSTSWMYWLRQAPGKGLEWVSVINTDGGTYYADSVKDRFTISRDNAKDTLYLQMSSLKSEDTAVYYCAKDWGGPEPTRGQGTQVTVSS
- neutralization titer [14]: 3 nM
- neutralization titer [15]: 2.1 nM
- neutralization titer [16]: 7.2 nM
- neutralization titer [17]: 12.7 nM
- neutralization titer [18]: 3.6 nM

B6: MD1224 (VHH)
chain: EVQLVESGGGLVQPGGSLKLSCAASGFTFSTSWMYWLRQAPGKGLEWVSVINTDGGTYYADSVKDRFTISRDNAKDTLYLQMSSLKSEDTAVYYCAKDWGGPEPTRGQGTQVTVSSAAAGGGGSGGGGSGGGGSGGGGSGGGGSGGGGSGGGGSEVQLVESGGGLVQPGGSLKLSCAASGFTFSTSWMYWLRQAPGKGLEWVSVINTDGGTYYADSVKDRFTISRDNAKDTLYLQMSSLKSEDTAVYYCAKDWGGPEPTRGQGTQVTVSS
- neutralization titer [14]: 4.1 nM
- neutralization titer [15]: 0.8 nM
- neutralization titer [16]: 4.5 nM
- neutralization titer [17]: 33 nM
- neutralization titer [18]: 2.7 nM

B7: MD2313 (bispecific antibody)
chain: EVQLVESGGGLVQAGDSLRISCAASGRTLSIYSMGWFRQAPGKEREFVATIGWNSGRTFYPDSLKGRFTISRDNARNTLYLQMNNLRPEDTAVYYCAAAKGPLRLSSQADYWGQGTQVTVSSGGGGSGGGGSEVQLVESGGGLVQAGDSLRISCAASGRTLSIYSMGWFRQAPGKEREFVATIGWNSGRTFYPDSLKGRFTISRDNARNTLYLQMNNLRPEDTAVYYCAAAKGPLRLSSQADYWGQGTQVTVSSGGGGSGGGGSEVQLVESGGGLVQPGGSLRLSCAATGFTLENKAIGWFRQTPGSEREGVLCISKSGSWTYYTDSMRGRFTISRDNAENTVYLQMDSLKPEDTAVYYCATTTAGGGLCWDGTTFSRLASSWGQGTQVTVSS
- average neutralization titer [19]: 7.7 nM
- average neutralization titer [20]: > 1000 nM
- average neutralization titer [21]: 6.5 nM
- average neutralization titer [22]: 21.7 nM
